B1: CmGH1 (Croceicoccus marinus) (protein)
chain: MTSDLIAKLSVNAGEPIGNMRQLHGTSGIPAPAPGTDSVPDILDVWRNAQVTLVRSYDWVSRLDTIDNPTSLFPDWSADPSDPASYNFAATDTWVGQTRSIGANILFTIASEIPANKQPARDLAKYEQVVENIVRHYVCGWGDGFENAVSHWEFGDQPDFGKLHFSGTPDQFYEMYAAAARAVKRVDPALKVGGPCVAFPLNEGPFREGFLDYVKQQSVPLDFLSWMWYGDNSRDPMDFRTIAAEVRAIVDKYGFTDTELLLSYWSMTGIPTAKFEDFDNAAFLAAAAIYMQDSEVDKAIFFRADTGADFHYNFTDPAGIFEDDGSQNARTGAFQLVGQTLATTERLAITGGDDNGFAALAGRTADGDTIRILISNYAIPDMYLTARDRDVFEFQVPIGDQKTDMSLNVPPRRVDARSTGYSGYTLEIGHLPWGDGPHRVVRYRADRDHKGEMLDSHEGRGSSVTVQNKLAVSGVELIEITRVSS
B2: CmGH1 (Croceicoccus marinus; Q157E) (protein)
chain: MTSDLIAKLSVNAGEPIGNMRQLHGTSGIPAPAPGTDSVPDILDVWRNAQVTLVRSYDWVSRLDTIDNPTSLFPDWSADPSDPASYNFAATDTWVGQTRSIGANILFTIASEIPANKQPARDLAKYEQVVENIVRHYVCGWGDGFENAVSHWEFGDEPDFGKLHFSGTPDQFYEMYAAAARAVKRVDPALKVGGPCVAFPLNEGPFREGFLDYVKQQSVPLDFLSWMWYGDNSRDPMDFRTIAAEVRAIVDKYGFTDTELLLSYWSMTGIPTAKFEDFDNAAFLAAAAIYMQDSEVDKAIFFRADTGADFHYNFTDPAGIFEDDGSQNARTGAFQLVGQTLATTERLAITGGDDNGFAALAGRTADGDTIRILISNYAIPDMYLTARDRDVFEFQVPIGDQKTDMSLNVPPRRVDARSTGYSGYTLEIGHLPWGDGPHRVVRYRADRDHKGEMLDSHEGRGSSVTVQNKLAVSGVELIEITRVSS

Assays:
CmGH1 = target: T1, CmGH1 (Croceicoccus marinus, UniProt A0A1Z1FG87); assay: residual p-NPG hydrolysis with added glucose; assay type: biochemical; conditions: p-NPG substrate; product inhibition
T1 construct: gene A9D14_15590; N-terminal His6-SUMO tag (pSMT3) cut with Ulp1; expressed in E. coli BL21 (DE3)

purified protein = substrate: O=[N+]([O-])c1ccc(O[C@@H]2O[C@H](CO)[C@@H](O)[C@H](O)[C@H]2O)cc1; assay: purified protein; conditions: conditions of the Km not stated, optimum pH 9.0, 55°C

| Molecule | % relative activity remaining at 200 mM (CmGH1) | Km (purified protein) | kcat (purified protein) |
| --- | --- | --- | --- |
| OC[C@H]1OC(O)[C@H](O)[C@@H](O)[C@@H]1O (some centres unmarked) [glucose] | > 30% | – | – |
| B1 | – | 332 ± 38 µM | 0.0358 ± 0.00135 s⁻¹ |
| B2 | – | 354.2 ± 42 µM | 0.488 ± 0.0147 s⁻¹ |
